Source: publication PMC6692503, “Short- and Long-Term Effects of UVA on Arabidopsis Are Mediated by a Novel cGMP Phosphodiesterase” (Current Biology, 2019)

Substrate: [H][C@@]12COP(=O)(O)O[C@@]1([H])[C@@H](O)[C@H](n1cnc3c(=O)[nH]c(N)nc31)O2
Test: phosphodiesterase assay kit (Biomol Green phosphate detection), Michaelis-Menten plot
Type: biochemical, Arabidopsis thaliana
Conditions: 25 °C, 60 min, GST fusion, Figure 3 legend prints 0.2587 μM, substrate of the plot not named in the legend

B1: CN-PDE1 (AtCN-PDE1, PDE1, AtPDE1) (Arabidopsis thaliana) (protein)
chain: MAAKTMRKAEELVEKAMKGNDASHDAWHVWRVRDLALSIAREEGLSSNSDSMEIVELAALLHDIGDYKYIRDPSEEKLVENFLDDEGIEETKKTKILTIINGMGFKDELAGVALCESLPEFGVVQDADRLDAIGAIGIARCFTFGGSRNRVLHDPEIKPRTELTKEQYIKREEQTTINHFHEKLLKLKKLMKTEAGKRRAEKRHKFMEEYLKEFYEEWDGST
Km: 0.259 µM
